The data set is described as follows: soluble on expression in E. coli; label from the status in PepcDB or PDB records.
Regarding “MLARYLNLIGRRSASPYRPQRLPAKFDNVIVAMSSGVDSSVAAALFAGEFPNTRGVYMQNWSESQSLDDPGKEPCYERDWRDVNRVAKHLNIRVDKVNFEQDYWIDVFEPMLRGYSEGSTPNPDIGCNKFVKFGKLREWLDEKYGTGNYWLVTGHYARVMQEMNGKGLFHLLRSIYRPKDQSYYLSQINSTVLSSLLLPIGHLTKPEVRDLAKYAGLPTAEKPDSQGICFVNNSQHGKFKNFLKHYLPSSPGDIITVDPQSGAKTTWGRHDGLWSYTIGQKVGISMPQADPNYQGTWFVSEKLRDTNEILIVRGRDNPALYSDTMRIENFSSLGPREDTINAFQNTGALTLQFRSLQVPVQIKSCKLNRSADNLDITIHLASKQRAITPGQSCCLYIDDRVLGSGPISHVNNNDTHA”, the “soluble on expression in E. coli” value was “soluble”.

On to “MAHHHHHHMLVRSITKCVVPLIKATSYTSSYIVEHPPTPVRLTSMLPLHNKSMPTPLLDPERLQEISCGTGQPAQRGRRKPLVWKRRKPWFDHQWSLDLQRIKKGPETPHFPDGTPFTQIRSFQSFAGRSWKINAGRRRKIRLSLKRGRRKLL”, for which the “soluble on expression in E. coli” value is “not soluble”.

Consider “MMLNNFETDSIFTPEQVLENRGRVAIFIDGSNLFYAALQLGIEIDYTKLLCRLTGGSRLLRSFFYTGVDRTNEKQQGFLLWMRRNGYRVIAKDLVQLPDGSKKANLDVEIAVDMMALVDSYDTAVLVSGDGDLAYAVNSVSYRGVRVEVVSLRSMTSDSLINVSDRYIDLEAIKEDIQKTPRQSYPYRPLSGIGFLEDPRTSDGHLEIQE”, for which the “soluble on expression in E. coli” value was “not soluble”.

As for “MAHHHHHHMGLVSSKHAGGGDGKPLSLDVISSRPKLEPHEVSLLQLTPHGVYATLAAHVYCAAAPETAMQVPLPDGWEVLLQCSSLHLDKEGYFAVAYVHRGSRHCIISERGTSEVLGLRAGIWMYFEQPTIQFFLAEQFSKAVRHKLKVMDKVCSGSWFVSYTGHSLGAVIAGCRAVMEGTLAVTFESPGARVFIEKTLDASSGTDEHLITYLRAPNPINTLKPQCGYVIMIPTQQVVLPSGTLFLAPSNPAAAEDDDEDERQSPRSGSGNRASRKPSKVPLSSTSSTNPSGCAGLVAASVTTAASTGTTAAATLAARSPTPPSVPASNSNNSGPGAAVASAPARWRIPSFRPQEYLRGYLFGGVGMGVPELQQYVGKVEPMIREMLEHTQQVHSIHSLRSHFQKSDEPGDEEVVLRWPSHLLQFMEFYNTTRALEDPENQDAGVKEAYLGLMRRLYYTEPRRRDCIPTKYLDPRSLLLVRMWWSMDAAQRKQWPLSLMDHKALNVIQIKDRYLCSYVMTAMQAKQYLMRLVARPEMRAMIDQWRRERNDGSTGAGSPQRSKL”, the “soluble on expression in E. coli” value is on record as “not soluble”.

For the sequence “GPGSMQLDDWDTYRETLLYARELAVLLPSSWSELSSEQSATKSSSSLSHSSSLPSLAFVKRVEAPLLTQWMTAAAAAPVTCHCSSVGDSVEDMDYATAVVAARWTRMLGMWIVLRVELLCNTSGGVLTLAEEYEVGRYRQYFVPLAWPMLDRSIRERLAARLCALADKRRVSQPMGGTSCANDMAASSFCGTLLGKDEEDEQACDEVCTRAMEATQRVAREQLRISWDALHPSSIPATVGAKLKRLSAQQSRRHESETGSLPRPVVVHTNCLGGLLHALTSFRLRPQRQHADHGSAPLLTLTQNALLHIGYDLLTKVRSSVIERCYYLIPALLDYESCLLFCEAMLKESAALQAHEKELTRTQSILRLTLQSLLQSALGMYRHVIEALLVDYKKSACKSSASSTPRLVKVSAHLLPANPLVAQEAAQKQHASDAVVPSKPPTHPGAADGCSASAVMRLSEPAFSILVEVLEPTCDLLQRYPADWNVLWTRSLTGPDGRDQGATSGSHIAREGGLLSPSSRRQRLVSQQRQRSIAMDVRREVVSFLDAEVSNCFAAAAAGSGAASKKAQQQAAADAYLTATYLSAYGPHWL”, the “soluble on expression in E. coli” value is listed as “not soluble”.

For the sequence “MIEIIETGPFNTVQDLGRPGYRDVGVSAGGAMDPLAVKIGNILLGNFDDAAVIEVQTFPFKMRFEARAAFAVTGADGQMLLDGRELLPWCTHVAAEGQVLELKQPPQFARAYISLTGGVDVPVLMGSRSTALRGGFGGNAGRPLARGDRLKIGTVADALPLPASGIAVIEPATALRDVFAPPIEGILQIRAIPAGEHGLFASDGEAFWSQTWRISSRSDRTGYRLSGEPIKPTETIEMRSHGVVPGVVQVPPGGEPIIQMSDANTAGGYPKVAGVIECDLWRLGQARIGSRLQFVRSTHAEARVVEQAVASYLEDIRQTSHMVKRALKAMAAAALEHHHHHH”, the “soluble on expression in E. coli” value was “not soluble”.

Consider “HAYKNALYDDEVSQFSNNWPLYYPLTARKFIYKHDLVDENIASKNRVELTNIERSSLNYPLAPIQVQSKEKQPNVLFILVDAWRYSDATPEVMPNVSKFAEKTVNFTQHMSGGNSTQAGIFSLFYSLPATYWESFYASQRSPVFMDTLQAEGYRMGIFGSAPLTSPPLSRTVFKKVSDLTLKQTGETAVERDQQITDKFIEFQKQDSDKPYFGFLFYDAAHGTVFPEPEFAKFKPYWERVDHILLNNDFDASLYHNRYKNSLYYIDSLIDDVLKNVDLDNTIVVISSDHGEEFNDHKMNYWGHTGNYSDVQVHVPLYVYMPNRQPEQIDYRTTHFDVVPTMMNTLFDVQGTTSSYSVGHNLFDSSAPRDWYIAGSYYNYALVGKELMLVVNPGGHSQQLNRQLKVEKEQKVPVDIIRHSLDEMSRFYKKG”, for which the “soluble on expression in E. coli” value is “not soluble”.

For the sequence “MSHSVPNALMTGADYLDSLRDGRQVYLNGERVADVTRHRAFRNACRSIAGLYDGLHGEQRDVLTRVDAQGRRSHRFFTPAQNAEDLLGAREAIGCWSRMTYGFMGRTPDYKAAFMSGLEAGAGFYGDYRHNACAWHRAFADRGLFLNHAIINPPLDRSKAIHEMRDVFVHVERETDQGIVVSGAKMLATGSAITNATFVAPVASAQMEAGKAEDFAVVFFARMDNPGLRLMCRPSYEERASSPFDYPLSSRFDENDSVLLFDKALIPWEDVLVYRDLRRATGFYAESGFANLYNFQSGIRLGVKLELMIGLLSLGVRANGTQSFRGIQAALGELIALQHLLQALTTAMARDPERNAAGSAVPRLEYANALRIQVPQIWKRVRELLESALGGAPLVTVSGAADLRDGEARRLVDSYYRGAELEPEQRLKLFKLIWDATGSEFGARHAVYESHYSGNAEQIRLDSLAWASRRGHLAYCEAMVQRCMADYDIHGWLRGPWQHD”, the “soluble on expression in E. coli” value is recorded as “not soluble”.

On to “RPARQVRRLEFNQAMDDFKTMFPNMDYDIIECVLRANSGAVDATIDQLLQMNLE”, for which the “soluble on expression in E. coli” value was “soluble”.

For “MAHHHHHHMVLTSDRGWPYSWERGESGILPDCYLNSEVERVWQIVKKDLTKLFSSHGKNKPSCHPRVLIGTPGIGKSMNVGSYLLYQLLHYDVEQLPMVVYFIANLTFLFDKTAKMVSLYTNEASILRILDGLPDRGFKGHIIYDVAMKGHQPSIGLPCKGWGMIVVTPPDKNNHEWWAKQMGAEEFIINCPEENDVRAMCIWMKRNRPLQEQAEYWKEVNGRMNKVGPILRFIFGKQAYDDRIKACQQALDGMNASKFEGYLDIGYCCVSNDSDLSRKLVKVVRVRRGYNFASPLNVLISPHLERETLSRLEDGMKQSDFIFFVLRFWDYVPPYLIEKYAVSAFLNDDFLRAIRLKIKELWPPGRRESHRCALKEHSDTSFARKEVLPPPERLSNPVAMDHWVLYEPKVQNFPLVDGFFFVDSNPKTLVGLRMTTAGGHRTTTRTVRRFTE”, the “soluble on expression in E. coli” value is “not soluble”.

Turning to “MNEKWIVERAEREGGRLWLYVNDAPVPLARVTPKRHMLVDSDALAFAYILETDDRFLYVMVPKLWWPELKAALDAEEPVWLRCGERTLELEQFHDELSYLLENIRGNANYGEALEQAVQDVFFEQ”, the “soluble on expression in E. coli” value is listed as “not soluble”.

In the case of “MTALKVGSESWWQSKHGPEWQRLNDEMFEVTFWWRDPQGSEEYSTIKRVWVYITGVTDHHQNSQPQSMQRIAGTDVWQWTTQLNANWRGSYCFIPTERDDIFSAPSPDRLELREGWRKLLPQAIADPLNPQSWKGGLGHAVSALEMPQAPLQPGWDCPQAPEIPAKEIIWKSERLKNSRRVWIFTTGDVTAEERPLAVLLDGEFWAQSMPVWPVLTSLTHRQQLPPAVYVLIDAIDTTHRAHELPCNADFWLAVQQELLPLVKVIAPFSDRADRTVVAGQSFGGLSALYAGLHWPERFGCVLSQSGSYWWPHRGGQQEGVLLEKLKAGEVSAEGLRIVLEAGIREPMIMRANQALYAQLHPIKESIFWRQVDGGHDALCWRGGLMQGLIDLWQPLFHDRS”, the “soluble on expression in E. coli” value is reported as “soluble”.

As for “MSESSHVGLWNRCLEIIRDNVPESTYKTWFVPIVPLKYEDKTLIVQVPSQFFYEFLEDKFVDLLRKTLYKVIGDGTKLMYNVLVDKSSGATVNQESTTRSTAIPQSGLPRVDERKAPGLLRAPAVQDLDPHLNPNYNFETFIEGYSNKLSRSVAEAVAENPAKTVFNPLFLHGASGVGKTHLANAIGTRIKELYPDKRVLYVSAHLFQVQYTDSVRNNTTNDFINFYQTIDVLIIDDIQEFAGVTKTQNTFFHIFNHLHQNGKQLILTSDRAPVLLQGMEERLLTRFKWGMVAELEKPTVELRKNILRNKIHRDGLQFPSEVIDYIAENVNESVRDLEGIVISIMAHSTIYNKEIDLDLAQRIVRKVVRCETKAVTIDDIINVVCKHFDLESSAIHTKSRKREVVQARQVAMYLAKTHTDFSTSKIGKFIGNKDHATVLHACKTVKGQCEVDKGFRSDLENIETLLKKRNVSNGERLEHHHHHH”, the “soluble on expression in E. coli” value is “soluble”.

Turning to “MTEQSVKNTPQHETQSKPKQKTVKLIIKRQDTSDSKPYEETFEIPYRENLNVIACLMEIRRNPVNIKGEKTTPVVWDMNCLEEVCGACSMVINGRARQSCSAIVDQLEQPIRLEPMNTFPVIRDLQVDRSRMFDNLKRMKAWIPIDGTYDLGPGPRMPEKKRQTAYELSKCMTCGVCLEVCPNVTENNKFVGAQAISQVRLFNLHPTGSMTKDERLNALMGTGGLQQCGNSQNCVNACPKGIPLTTSIAAMNRETTFHMFKSFFGSDHEVE”, the “soluble on expression in E. coli” value is reported as “not soluble”.

In the case of “MSLVRDIKTFKFFEVLLIYEMLEVLKALAMMNATRKVVKISSKELAEHIGQSLQTAARKLKELEDEGLIDRTLTKDGQFVVITEKGKQLLYKEYMDYKKIFDDEGTIKIKGEVFSGVGEGRYYVSLEGYRKQFREKLGFDPYPGTLNLRIPKEEMYFRRRLDEERGILIEGFSTEDRTFGEVKAFKCRINGIEGAIVIPKRTHYPAEILEVISPVKLRDKLGLKDGDFVEVEVILEGHHHHHH”, the “soluble on expression in E. coli” value is given as “soluble”.

“MLLAYSMKVVYHLFSGGKDSSLAAWILKKLGYEVKLITITFGVLDNWKFARETAEILGFDHEVIEMPIGILEKATEMCIKEGRAGNAIQYIHERALEYIASREEVKRISDGTRRDDRVPFLDLSKARSLEDRYNVAYIRPLLGLGYKTIRELVNEIFVVVEDESEKVQKGDYETELRELIRRKGHDPSQIFPKRHVQSRVVGLR”: the “soluble on expression in E. coli” value was “not soluble”.

Regarding “MRGRPIELEPWQQFAFACILGFKVKATGRRKYTSAFIEVPRKNAKSTTAAILANWFLIMENGQQDIYTAAVSRDQARIVFDNARQMCLLSRPLRRRVNIQAHKVIHPKSNSLLKPLAAKAATIEGTNPSLSIVDEYHLHPDNGVYSALELGMGARPEGLLFAITTSGSNVVSACKQHYDYCCQILDGEEVNDSIFVLIYELDDENEVDDPAMWIKANPNIDVSVDREKLASTIQKARGIPSQWVEMMTKRFNIWCQGTTPWMGNGAWAECAGTFTEEDLHGQECYAGLDLSSTSDISSVCYAFPVGKTIMLISRHYLPEFQLQNPANKNRAVYRQWAKAGWIRTTPGDCIDYDRIRDDIMQDAEKFNIRLVGFDTWNATHLRTQLQGAGFEVEPFPQTYLRFSPAAKSFEVFVNRRVIVHRGDPVLSWSMSNVVMQSDANANIKPNKKKSPNKIDPSVAALMAFGTFQAEHEDFAFDISDSHRQKLEEFSGV”, the “soluble on expression in E. coli” value is recorded as “not soluble”.
